Assay results from patent publication US20140004106A1.

Experiments:
[1] = molecular target: 28mer peptide of the CXCR5 antigen; assay: Antigen-ELISA; standard run with LA_09_28C, T0
[2] = molecular target: 28mer peptide of the CXCR5 antigen; assay: Antigen-ELISA; standard run with LA_09_004_7
[3] = molecular target: 28mer peptide of the CXCR5 antigen; assay: Antigen-ELISA; PB 10 mM pH 6.50, T0
[4] = molecular target: 28mer peptide of the CXCR5 antigen; assay: ELISA potency (binding); 100 mg/mL, Glycine (20), 7 days at 40°C
[5] = molecular target: 28mer peptide of the CXCR5 antigen; assay: ELISA potency (binding); 100 mg/mL, Lysine (30) + NaCl (2), T zero
[6] = molecular target: 28mer peptide of the CXCR5 antigen; assay: Antigen-ELISA; standard run with LA_09_28A, T0
[7] = molecular target: 28mer peptide of the CXCR5 antigen; assay: Potency (Antigen ELISA); stored +5°C, 6 months
[8] = molecular target: 28mer peptide of the CXCR5 antigen; assay: Antigen-ELISA; Citrate 10 mM pH 5.00, after 1 week at +40°C
[9] = molecular target: 28mer peptide of the CXCR5 antigen; assay: Antigen-ELISA; PBS 155 mM, polyethylene high density, 24 h +40°C
[10] = molecular target: 28mer peptide of the CXCR5 antigen; assay: Antigen-ELISA; Arginine 10 mM pH 6, T0
[11] = molecular target: 28mer peptide of the CXCR5 antigen; assay: Antigen-ELISA; standard run with LA_09_004_10
[12] = molecular target: 28mer peptide of the CXCR5 antigen; assay: Potency (Antigen ELISA); stored +25°C, 3 months
[13] = molecular target: 28mer peptide of the CXCR5 antigen; assay: Antigen-ELISA; PBS 155 mM pH 7.00, after 1 week at +40°C
[14] = molecular target: 28mer peptide of the CXCR5 antigen; assay: Antigen-ELISA; Succinate 10 mM pH 6.00, after 1 week at +40°C
[15] = molecular target: 28mer peptide of the CXCR5 antigen; assay: Antigen-ELISA; PBS 155 mM, clear glass type I + V2A piece, 24 h
[16] = molecular target: 28mer peptide of the CXCR5 antigen; assay: Antigen-ELISA; PB 10 mM pH 7.00, T0
[17] = molecular target: 28mer peptide of the CXCR5 antigen; assay: Antigen-ELISA; histidine 10 mM prototype D, T0
[18] = molecular target: 28mer peptide of the CXCR5 antigen; assay: Antigen-ELISA; standard run with LA_09_27C, T0
[19] = molecular target: 28mer peptide of the CXCR5 antigen; assay: Potency (Antigen ELISA); stored -20°C, 1 month
[20] = molecular target: 28mer peptide of the CXCR5 antigen; assay: Antigen-ELISA; Citrate 10 mM pH 7.00, T0
[21] = molecular target: 28mer peptide of the CXCR5 antigen; assay: Antigen-ELISA; acetate 10 mM prototype A, repeated values in the 3 weeks -20°C
[22] = molecular target: 28mer peptide of the CXCR5 antigen; assay: Antigen-ELISA; PB 10 mM pH 7.50, after 1 week at +40°C
[23] = molecular target: 28mer peptide of the CXCR5 antigen; assay: Antigen-ELISA; PB 5 mM pH 7.00, after mechanical stress 350 rpm 2.5 h
[24] = molecular target: 28mer peptide of the CXCR5 antigen; assay: Antigen-ELISA; PB 5 mM pH 7.50, after 1 week at +40°C
[25] = molecular target: 28mer peptide of the CXCR5 antigen; assay: Antigen-ELISA; PBS 155 mM, 1 h purged with N2, 24 h
[26] = molecular target: 28mer peptide of the CXCR5 antigen; assay: Potency (Antigen ELISA); stored -20°C, 9 months
[27] = molecular target: 28mer peptide of the CXCR5 antigen; assay: Antigen-ELISA; Citrate 10 mM pH 6.50, after mechanical stress 350 rpm 2.5 h
[28] = molecular target: 28mer peptide of the CXCR5 antigen; assay: Antigen-ELISA; PB 10 mM pH 6.50, after mechanical stress 350 rpm 2.5 h
[29] = molecular target: 28mer peptide of the CXCR5 antigen; assay: Ag-ELISA; DS in PBS, -20°C, 1 month
[30] = molecular target: 28mer peptide of the CXCR5 antigen; assay: Antigen-ELISA; citrate 10 mM prototype C, T0
[31] = molecular target: 28mer peptide of the CXCR5 antigen; assay: Potency (Antigen ELISA); stored +25°C, 6 months
[32] = molecular target: 28mer peptide of the CXCR5 antigen; assay: Potency (Antigen ELISA); stored -20°C, 3 months
[33] = molecular target: 28mer peptide of the CXCR5 antigen; assay: Potency (Antigen ELISA); stored +5°C, initial
[34] = molecular target: 28mer peptide of the CXCR5 antigen; assay: Antigen-ELISA; standard run with LA_09_27A, T0
[35] = molecular target: 28mer peptide of the CXCR5 antigen; assay: Antigen-ELISA; histidine 10 mM prototype A, T0
[36] = molecular target: 28mer peptide of the CXCR5 antigen; assay: Antigen-ELISA; standard run with LA_09_29D, T0
[37] = molecular target: 28mer peptide of the CXCR5 antigen; assay: ELISA potency (binding); 100 mg/mL, Lysine (30) + NaCl (2), 7 days at 40°C
[38] = molecular target: 28mer peptide of the CXCR5 antigen; assay: Antigen-ELISA; standard, repeated values in the 3 weeks -20°C
[39] = molecular target: 28mer peptide of the CXCR5 antigen; assay: ELISA potency (binding); 100 mg/mL, Glycine (20), T zero
[40] = molecular target: 28mer peptide of the CXCR5 antigen; assay: Potency (Antigen ELISA); stored +5°C, 12 months
[41] = molecular target: 28mer peptide of the CXCR5 antigen; assay: Antigen-ELISA; Citrate 10 mM pH 5.00, after mechanical stress 350 rpm 2.5 h
[42] = molecular target: 28mer peptide of the CXCR5 antigen; assay: Antigen-ELISA; PBS 155 mM, polypropylene, 24 h +40°C
[43] = molecular target: 28mer peptide of the CXCR5 antigen; assay: ELISA potency (binding); 100 mg/mL, Arginine (20) + Mannitol (15), T zero
[44] = molecular target: 28mer peptide of the CXCR5 antigen; assay: Antigen-ELISA; Arginine 10 mM pH 8, T0

B1: Lead CXCR5 Antibody (humanized IgG4 anti-CXCR5 antibody) (antibody, V domains shown)
VH: QVQLKESGPGLVAPSESLSITCTVSGFSLIDYGVNWIRQPPGKGLEWLGVIWGDGTTYYNPSLKSRLSISKDNSKSQVFLKVTSLTTDDTAMYYCARIVYWGQGTLVTVSA
VL: DIVMTQAAPSVAVTPGASVSISCRSSKSLLHSSGKTYLYWFLQRPGQSPQLLIYRLSSLASGVPDRFSGSGSGTAFTLRISRVEAEDVGVYYCMQHLEYPYTFGGGTKLEIKR
[1]
  EC50 %: 100%
[2]
  EC50 %: 100%
[3]
  EC50 %: 105%
[4]
  rel. potency [%]: 180%
[5]
  rel. potency [%]: 130%
[6]
  EC50 %: 100%
[7]
  EC50 value (in comparison to reference): 97%
[8]
  EC50 %: 75%
[9]
  EC50 %: 157%
[10]
  EC50 %: 114%
[11]
  EC50 %: 100%
[12]
  EC50 value (in comparison to reference): 96%
[13]
  EC50 %: 97%
[14]
  EC50 %: 126%
[15]
  EC50 %: 80.8%
[16]
  EC50 %: 145%
[17]
  EC50 %: 169%
[18]
  EC50 %: 100%
[19]
  EC50 value (in comparison to reference): 107%
[20]
  EC50 %: 59.9%
[21]
  EC50 %: 112%
[22]
  EC50 %: 68%
[23]
  EC50 %: 110%
[24]
  EC50 %: 141%
[25]
  EC50 %: 89.3%
[26]
  EC50 value (in comparison to reference): 101%
[27]
  EC50 %: 41%
[28]
  EC50 %: 89.4%
[29]
  EC50 %: 132%
[30]
  EC50 %: 104%
[31]
  EC50 value (in comparison to reference): 104%
[32]
  EC50 value (in comparison to reference): 84%
[33]
  EC50 value (in comparison to reference): 75%
[34]
  EC50 %: 100%
[35]
  EC50 %: 174%
[36]
  EC50 %: 100%
[37]
  rel. potency [%]: 264%
[38]
  EC50 %: 100%
[39]
  rel. potency [%]: 170%
[40]
  EC50 value (in comparison to reference): 93%
[41]
  EC50 %: 99%
[42]
  EC50 %: 107%
[43]
  rel. potency [%]: 117%
[44]
  EC50 %: 121%
